Experimental data: paper PMC9453709

Molecular target: SARS-CoV-2 Omicron BA.1 S glycoprotein ectodomain with S6P and GSAS mutations (SARS-CoV-2)
Assay: cryo-EM structure

## SARS-CoV-2 Omicron BA.1 S glycoprotein ectodomain with S6P and GSAS mutations (domain or fragment)
  stoichiometry N: 3
